The text below walks through data of the DeepSol protein solubility set.

The nature of the series: soluble on expression in E. coli; label from the status in PepcDB or PDB records.
On to “METPSSAKRVTRSQAISAINDSDSDFKVPFSSSNKTEDSSIDQRKEEDRSALIDITNDSPIVGLTMQTPPSGFMVKRKSSRIKITPGSGEALLRGQVKTLLHKVEEGTELIHSIKTRPFIHLVTSPMRLLAPTPANTPQFPNFSDDDVKIKIASPIVAGNLRTSQISEEKEDKRMKKMNVETNQAEFAGKHNRFLYNSEDDEIVEAKEVLHLKGIPTPRGKHFRFATQEE”, for which the “soluble on expression in E. coli” value is listed as “soluble”.
Under “MGSDKIHHHHHHMGQSEVNFYQQEVVELLKQVIEPNLKNDIVSLGMVRNLRIVDDYVYLRLYIGSHQQQLQTEVEAKLSALSWCKKTYIQICTIPGVKITLGISSGKGGVGKSTTAVNIAAALSLQGAKVGLLDADVYGPNVPQMLGLGQADVEVIQTPTGEKFLPLEVQGIKLMSVGLLAEENRPLAWRGPVLHKIITQFINDVEWGELDYLLIDLPPGTGDAQITIIQESPICGVILVTTPQQVAVADVRRNIYMFRQVGVPVLGIVENMSYLICGDCGSRTYIFGSGGGEQLATELQAPLLGQIPIDQRICSGGDSGNPIAISEQTSPASEVFRNIAIAIGLSFP” stands “not soluble”.
As to “MYNITLPVLGTRLKQIREHVGYSQAQLAEQLNCKQNAISNLELGKGGSLKLLFQVLNFYSNYVFIDLIFSEKFYLISNTEEDEAQKANYNSVIIEIIRQSEKNYENAMSNAKKELEANLQKAINLLQP”, the “soluble on expression in E. coli” value is reported as “not soluble”.
Under “GPGSMSKYANPDYWEERYRSNDTTFDWYLTFDNLEPVLRPMLQPAEQIHVLVVGCGNSRLSPCMYEHLNVRKITNVDVSPTVISQMTRRYKGMDEMRWICCDLIHTAPDKLLTLLCPEDALFDFVIDKGLVDATLGGSNSFHNLYTLTKNLARVMKNGGRFLSVSYGAPETRIDHFRRRKLNFDVEHRTIEKSVFASGAAPTGSYHVYIMTKLGERQAVTAGAADDGALSGDTDDDDDFYDRFMTKANTTSADAARFD” stands “soluble”; under “MLRTAGRDGLCRLSTYLEELEAVELKKFKLYLGTATELGEGKIPWGSMEKAGPLEMAQLLITHFGPEEAWRLALSTFERINRKDLWERGQREDLVRDTPPGGPSSLGNQSTCLLEVSLVTPRKDPQETYRDYVRRKFRLMEDRNARLGECVNLSHRYTRLLLVKEHSNPMQVQQQLLDTGRGHARTVGHQASPIKIETLFEPDEERPEPPRTVVMQGAAGIGKSMLAHKVMLDWADGKLFQGRFDYLFYINCREMNQSATECSMQDLIFSCWPEPSAPLQELIRVPERLLFIIDGFDELKPSFHDPQGPWCLCWEEKRPTELLLNSLIRKKLLPELSLLITTRPTALEKLHRLLEHPRHVEILGFSEAERKEYFYKYFHNAEQAGQVFNYVRDNEPLFTMCFVPLVCWVVCTCLQQQLEGGGLLRQTSRTTTAVYMLYLLSLMQPKPGAPRLQPPPNQRGLCSLAADGLWNQKILFEEQDLRKHGLDGEDVSAFLNMNIFQKDINCERYYSFIHLSFQEFFAAMYYILDEGEGGAGPDQDVTRLLTEYAFSERSFLALTSRFLFGLLNEETRSHLEKSLCWKVSPHIKMDLLQWIQSKAQSDGSTLQQGSLEFFSCLYEIQEEEFIQQALSHFQVIVVSNIASKMEHMVSSFCLKRCRSAQVLHLYGATYSADGEDRARCSAGAHTLLVQLPERTVLLDAYSEHLAAALCTNPNLIELSLYRNALGSRGVKLLCQGLRHPNCKLQNLRLKRCRISSSACEDLSAALIANKNLTRMDLSGNGVGFPGMMLLCEGLRHPQCRLQMIQLRKCQLESGACQEMASVLGTNPHLVELDLTGNALEDLGLRLLCQGLRHPVCRLRTLWLKICRLTAAACDELASTLSVNQSLRELDLSLNELGDLGVLLLCEGLRHPTCKLQTLRLGICRLGSAACEGLSVVLQANHNLRELDLSFNDLGDWGLWLLAEGLQHPACRLQKLWLDSCGLTAKACENLYFTLGINQTLTDLYLTNNALGDTGVRLLCKRLSHPGCKLRVLWLFGMDLNKMTHSRLAALRVTKPYLDIGC”, “soluble”; under “MSLRDESRLDKYVIKEILRINRHLPRRRKTLEELLREERPHVVNRDGTKHYFDRDELERLADILPRYLHGRLKLPILIELGYSGAAVIRGKAEVRVVCEVLGEEWRFSQDRVELNMLDVRKLRREFPTATQYMFSTEYIMGRPKVERREGHHHHHH”, “soluble”.
Under “MSLIRKREFDMPIKIPDTLPAFETLVHEGVRVMTETAAIRQDIRPLQIGLLNLMPNKIKTEIQMARLVGASPLQVELSLIRIGGHRAKNTPEEHLLSFYQTWEEVRHRKFDGFIITGAPIELLDYEDVTYWNEMQQIFEWTQTNVHSTLNVCWGAMAAIYHFHGVPKYELKEKAFGVYRHRNLSPSSIYLNGFSDDFQVPVSRWTEVRRADIEKHPELEILMESDEMGVCLAHEKAGNRLYMFNHVEYDSTSLADEYFRDVNSGVPIKLPHDYFPHNDPELAPLNRWRSHAHLFFGNWINEIYQTTPYDPQAIGKLAAEGHHHHHH” stands “soluble”.
Under “MQRLFVYGSLGPGRPNEHLMQKIGGQWQAASLRGRLLEKGWGAGMGFPGLAIDADGEEIHGHVFVSDRLAEHWPALDEFEGSEYRRVATRVTLADGAQVDAYVYALRD” stands “not soluble”.
“METTKTNVLEAGAKVLQSNGPVGKLDIYLVGFHPMKDAPEQQMEAHHYCQQVNQDLAQCALYDGNTAEANLTGIEYIISESLFAQLPAQERAFWHPHNGEILSGQLSAPNLPLVAEKELMRSKMNSYGKTWHTWHSRKGTAPGDTLPLGEPMLAWSFSRDGEIQQPLIEQRDKAVTISTAERRADRKDLTELAKPQHGVDALHRHFPEATPIPGVVDAEATAQLEHHHHHH”: the “soluble on expression in E. coli” value is “soluble”.
Take “MANFIEKITYLGTPAIKAGNEHLEMIVVPEWGSNVISLVDKTTNVQLLREPETAESFHDTPTLYGIPILFPPNRISDGTFSFRGRTYHFDINEKDKHNHLHGFLYHEKWNVVTTKQTDEGVIVETEIDLSELPHVQKQFPHHAVVRMTYTIKENTLFKHATVMNKGKEAFPWGIGYHTTFIFPAESSLFSLTADQQWELDERLLPTGKLMDVPYKEALHEGMDLRHKQLDDVFLSSYQKRGGENQAVIYHQHAHISIIYKADEQFKHWVVYNADGKQGYLCPEPYTWVTNAVNLDLPSSLTGLQVLEPGEETTAKSSITIELNHQLEHHHHHH”: the “soluble on expression in E. coli” value was “soluble”.
Under “ELDWFARRGLKEPNLAELLDLVALGSVADVVPLDANNRILVHQGLARIRAGRARPGLRALLEVAGRPPVRITSTDLGFILGPRLNAAGRLDDMSLGIECLLCDDEALARDMAVQLDQLNQDRKAIEQGMQREALAQLKELSLEQLPFGLCLFDADWHQGVIGILASRLKERYHRPTIAFADAGDGSLKGSARSIPGFHIRDALDAVAARHPGLISKFGGHAMAAGLSLPQENFGAFSAAFDAEVRRQLAEEDLAGRLLSDGQLSIQEFHLELARALRQAGPWGQHFPEPMFHGVFQLVQQRIVGERHLKLVLKSECGSLQLDGIAFNIDREQWPNPTVRWAELAYKLDVNEFRGQESVQL” stands “not soluble”; under “SSNFSSERIRYAKWFLEHGFNIIPIDPESKKPVLKEWQKYSHEMPSDEEKQRFLKMIEEGYNYAIPGGQKGLVILDFESKEKLKAWIGESALEELCRKTLCTNTVHGGIHIYVLSNDIPPHKINPLFEENGKGIIDLQSYNSYVLGLGSCVNHLHCTTDKCPWKEQNYTTCYTLYNELKEISKVDLKSLLRFLAEKGKRLGITLSKTAKEWLEGKKEEEDTVVEFEELRKELVKRDSGKPVEKIKEEICTKSPPKLIKEIICENKTYADVNIDRSRGDWHVILYLMKHGVTDPDKILELLPRDSKAKENEKWNTQKYFVITLSKAWSVVKKYLEA”, “soluble”; under “MAHHHHHHMNDERVLFLTSSTCITICENQIGIDVLLKTDILHNAVILCESANPDLAFEALSIISKIAYAANHQQICILISCNVIKALKKILNNMKIKPGARARACNALGNIGCETASEVELLIKNDVFPLLVDIFQTDNDFNTKIEAAYAVCACLSKANQKQVGYIISCTATTNRLGQNICMQLIADMLELVSESDPMNNGSVKLCKSILRGLENILDKGDDETRDLSLWENPYVFMFKEVQGDIKLFQMQFFPEYYVVNKTYDILAKYFSLTSTWNNRK”, “not soluble”.
For “MSGAAAASAAGYDRHITIFSPEGRLYQVEYAFKATNQTNINSLAVRGKDCTVVISQKKVPDKLLDPTTVSYIFCISRTIGMVVNGPIPDARNAALRAKAEAAEFRYKYGYDMPCDVLAKRMANLSQIYTQRAYMRPLGVILTFVSVDEELGPSIYKTDPAGYYVGYKATATGPKQQEITTNLENHFKKSKIDHINEESWEKVVEFAITHMIDALGTEFSKNDLEVGVATKDKFFTLSAENIEERLVAIAEQD”, the “soluble on expression in E. coli” value was “soluble”.
For the sequence “TPNEMGYLHVIENLTKKRMTPLRPPTEKEAFKGQLSAAVETIESDLEENGLDKYLESAEALLEKYSATDLAALLLKTVAKDPADAVPVKITPERPLPSNKKGFNKNGR”, the “soluble on expression in E. coli” value is on record as “not soluble”.
Under “MGSDKIHHHHHHMTVVEPNSDQKLDTAVATVLHEISSFQSFAVERDLEDVIERISKVFRISDIDAFRYYINKSISGLGKIYPLFNLEEVKEIDVNGYDEPVIVKLSDDNYYTTNIKLLANEVDSIAIRLAQLMGKKISTSDPLARGTLNNREVSITFGTEISPKGSSIRIARNDSGYDLKKFVESNGFSLESISYLKIAIENSKSIVIIGPHTELKYSALLFLMDLVDKEKKITYIGEKIPSRSPGNYIFMKTKEKSIFSSQIDRVSLINTAMRQRPDYIVIDTIEVVDLPSVIQAITTGHPTFTSIDIDSVSALVSAFSDSALDLGRDMVSVIDIVIEISESSDRISSIYEFDRFEHNDVLYDLVFSIDKTTEKLRYNGFSPMFRSMSNAMGKDDFHRYLENVRKITSELIENGLS” stands “not soluble”; under “MSPRDVLDSIFAFPPNRDTLGGTSYLIVGNEGNILIDCPALDQTNLNFLRSHGGVRWLFLTHRGAIGRTAEIQQNYGCDILIQEQEAYLLPGLTVTTFTQEFAVTPTAKAIWTPGHSPGSSCLYYNHQGGVLFSGRHLLPNQKGEPVPLRTAKTFHWPRQIKSLQTILETLTPETLQYICPGANTGFLRGKRSIDTAYQRLASLDLKALLQTQPLILEHHHHHH”, “soluble”.
Under “MGSDKIHHHHHHMKKLLFIVNVDWFFISHRLPIAIDALKKGYTVTIACHFTSHKQELIDMGFNVLEIPFSRSGAGILSELNTLKCIRKVINDVNPSLIHAVTIKPVLYTGLVLKSINRNIPFVAAISGLGYVFTASTLRAKLTRFIASAFYKVALSQKYKMVIFQNTSDENILTKVAKLESSDKFLIKGSGADLSVYNFSPENLDNRTSIVMACRLLREKGVYVYVDAAKLVKEHFPEAEFLLVGTPDLENPNTVKQVEIDQWVSDGTIKYLGHRNDIPSIFANSNIVCLPSFYGEGVPKVLIEAAACGRAIVTTDNPGCKDAIINEVTGIAVPVRDAQSLALAIIKLLDDPALRISMGKKGRSFAEQEFDVRAVVTKHLDIYNELLQK” stands “not soluble”.
Under “MPVYFTKRAFLPDGWAADVQIAVDELGDIQRISTGSSSSGCQVLSGPVLPGMPNLHSHAFQRMMSGLAEVAGDPQDSFWTWRDLMYRLVQQLTPEQVGVIARQLYIEMLKGGYTQVAEFHYLHHSPDGSPYNDIGEMTAQLSQAAQDAGIGMTLLPVLYSYAGFGAQPAQQGQSRFIQDTESYLRQQQVIRRQLANQPLQNQGLCFHSLRAVELSQMQQILHVSDKQLPVHIHIAEQQKEVNDCLAWCGQRPVAWLYGHLPVDSRWCLVHATHLDTSELVMLANSQAVAGLCPTTEANLGDGIFPGVDYIHHQGRWGIGSDSHVSLDVVEELRWLEYGQRLRDQRRNRLTCERQPAVADLLYSQALAGGRQACGRQISQLAVGYRADWLVLDGDDPYIAGTRSASLLNRWLFAGGKSQIRDVYVAGKAVIVDRYHPLQQQTAQAFLAVLKACQQEV” stands “not soluble”; under “GHMGEEQYNRYQQYGAEECVLQMGGVLCPRPGCGAGLLPEPDQRKVTCEGGNGLGCGFAFCRECKEAYHEGECSAVFEAS”, “soluble”.
